Measured values reported in US20260152536.

Key:
IL-12p70-L5-TM = IL-12p70-L5-TM (UniProt P43432)
IL-12p70-L2-TM = IL-12p70-L2-TM (UniProt P43432)
IL-12p70-L4s-TM = IL-12p70-L4s-TM (UniProt P43432)
IL-12p70-L3-TM = IL-12p70-L3-TM (UniProt P43432)
IL-12p70-L4-TM = IL-12p70-L4-TM (UniProt P43432)
Sequence of IL-12p70-L4-TM (P43432 other isoform, or with tags, fused parts or gaps): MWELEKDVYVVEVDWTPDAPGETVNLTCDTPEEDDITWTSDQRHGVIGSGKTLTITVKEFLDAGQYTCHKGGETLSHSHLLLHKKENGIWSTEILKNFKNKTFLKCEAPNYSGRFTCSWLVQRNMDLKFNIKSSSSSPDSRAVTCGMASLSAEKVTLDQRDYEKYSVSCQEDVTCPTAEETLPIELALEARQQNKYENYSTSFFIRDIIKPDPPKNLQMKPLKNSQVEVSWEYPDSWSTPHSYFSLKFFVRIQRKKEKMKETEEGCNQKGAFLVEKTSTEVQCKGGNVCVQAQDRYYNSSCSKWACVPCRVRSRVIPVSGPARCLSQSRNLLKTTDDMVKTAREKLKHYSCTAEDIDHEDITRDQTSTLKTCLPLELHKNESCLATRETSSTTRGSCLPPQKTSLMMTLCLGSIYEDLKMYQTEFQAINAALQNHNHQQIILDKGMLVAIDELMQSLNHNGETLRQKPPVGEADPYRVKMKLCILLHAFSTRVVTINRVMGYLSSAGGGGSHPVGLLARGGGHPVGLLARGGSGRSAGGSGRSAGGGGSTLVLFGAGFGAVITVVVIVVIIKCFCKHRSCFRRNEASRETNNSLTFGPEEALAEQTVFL

Sequence of activated murine MMP2 (matrix metalloprotease 2) (chain, as listed by the source): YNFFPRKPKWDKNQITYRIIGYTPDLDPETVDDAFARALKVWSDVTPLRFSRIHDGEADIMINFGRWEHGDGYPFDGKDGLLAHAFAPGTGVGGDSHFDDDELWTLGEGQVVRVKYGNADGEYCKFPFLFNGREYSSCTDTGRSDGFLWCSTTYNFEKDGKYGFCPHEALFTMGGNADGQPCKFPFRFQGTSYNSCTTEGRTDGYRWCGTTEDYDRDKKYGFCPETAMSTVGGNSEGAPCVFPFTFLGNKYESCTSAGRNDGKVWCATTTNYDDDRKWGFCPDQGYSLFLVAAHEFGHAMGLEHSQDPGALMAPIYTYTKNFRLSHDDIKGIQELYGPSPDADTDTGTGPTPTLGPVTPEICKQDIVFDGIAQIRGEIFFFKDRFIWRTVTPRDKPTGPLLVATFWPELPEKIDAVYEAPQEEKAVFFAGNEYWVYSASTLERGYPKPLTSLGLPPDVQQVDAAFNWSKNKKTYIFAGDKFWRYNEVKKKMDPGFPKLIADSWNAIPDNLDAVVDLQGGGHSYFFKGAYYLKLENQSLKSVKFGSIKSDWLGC
Sequence of IL-12p70-L2-TM (P43432 other isoform, or with tags, fused parts or gaps): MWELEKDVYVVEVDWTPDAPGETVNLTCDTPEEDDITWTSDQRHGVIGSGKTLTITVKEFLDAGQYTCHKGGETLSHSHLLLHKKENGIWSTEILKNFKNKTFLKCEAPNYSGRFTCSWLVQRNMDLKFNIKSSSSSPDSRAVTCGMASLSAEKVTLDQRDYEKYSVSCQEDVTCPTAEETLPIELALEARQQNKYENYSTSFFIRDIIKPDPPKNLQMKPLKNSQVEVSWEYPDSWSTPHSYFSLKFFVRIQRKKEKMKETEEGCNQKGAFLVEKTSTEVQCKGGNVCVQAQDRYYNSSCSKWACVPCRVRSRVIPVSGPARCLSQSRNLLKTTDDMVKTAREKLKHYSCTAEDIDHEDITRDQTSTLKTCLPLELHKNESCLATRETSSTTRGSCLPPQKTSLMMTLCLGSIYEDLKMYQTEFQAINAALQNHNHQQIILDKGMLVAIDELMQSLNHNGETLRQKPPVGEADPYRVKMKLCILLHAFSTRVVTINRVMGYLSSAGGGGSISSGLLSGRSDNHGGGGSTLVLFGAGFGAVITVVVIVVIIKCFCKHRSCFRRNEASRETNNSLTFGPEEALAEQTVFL
Sequence of IL-12p70-L4s-TM (P43432 other isoform, or with tags, fused parts or gaps): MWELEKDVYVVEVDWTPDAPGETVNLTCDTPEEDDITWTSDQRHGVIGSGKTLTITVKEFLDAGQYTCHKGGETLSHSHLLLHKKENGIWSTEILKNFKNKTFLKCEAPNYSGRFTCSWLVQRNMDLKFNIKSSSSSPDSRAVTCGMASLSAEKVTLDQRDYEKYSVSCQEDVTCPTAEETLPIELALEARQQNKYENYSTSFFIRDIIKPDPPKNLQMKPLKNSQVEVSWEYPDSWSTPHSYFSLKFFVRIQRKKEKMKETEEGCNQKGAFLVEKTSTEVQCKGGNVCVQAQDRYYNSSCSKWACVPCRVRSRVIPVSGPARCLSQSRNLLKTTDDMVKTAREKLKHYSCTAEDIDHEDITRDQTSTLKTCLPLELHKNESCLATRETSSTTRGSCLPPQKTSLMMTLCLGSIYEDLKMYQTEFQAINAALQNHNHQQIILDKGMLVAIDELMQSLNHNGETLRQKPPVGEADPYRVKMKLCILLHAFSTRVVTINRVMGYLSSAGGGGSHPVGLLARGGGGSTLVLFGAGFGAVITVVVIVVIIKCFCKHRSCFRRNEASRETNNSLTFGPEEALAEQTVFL
Sequence of IL-12p70-L5-TM (P43432 other isoform, or with tags, fused parts or gaps): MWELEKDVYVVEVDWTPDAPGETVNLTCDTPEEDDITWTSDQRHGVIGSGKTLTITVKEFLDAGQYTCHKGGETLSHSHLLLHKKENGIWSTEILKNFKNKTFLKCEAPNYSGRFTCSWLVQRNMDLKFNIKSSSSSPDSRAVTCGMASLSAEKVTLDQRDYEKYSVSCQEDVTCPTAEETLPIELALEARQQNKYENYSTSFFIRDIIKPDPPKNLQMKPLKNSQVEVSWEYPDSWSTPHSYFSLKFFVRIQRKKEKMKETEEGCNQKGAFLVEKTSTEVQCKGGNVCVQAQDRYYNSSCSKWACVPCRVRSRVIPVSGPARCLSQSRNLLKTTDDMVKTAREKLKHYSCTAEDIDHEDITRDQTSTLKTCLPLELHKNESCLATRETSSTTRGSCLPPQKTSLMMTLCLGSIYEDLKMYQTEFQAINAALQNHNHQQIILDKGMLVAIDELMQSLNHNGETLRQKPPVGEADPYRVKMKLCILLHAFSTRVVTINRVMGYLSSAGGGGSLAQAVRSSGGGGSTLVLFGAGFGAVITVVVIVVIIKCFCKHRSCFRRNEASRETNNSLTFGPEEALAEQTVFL
Sequence of IL-12p70-L3-TM (P43432 other isoform, or with tags, fused parts or gaps): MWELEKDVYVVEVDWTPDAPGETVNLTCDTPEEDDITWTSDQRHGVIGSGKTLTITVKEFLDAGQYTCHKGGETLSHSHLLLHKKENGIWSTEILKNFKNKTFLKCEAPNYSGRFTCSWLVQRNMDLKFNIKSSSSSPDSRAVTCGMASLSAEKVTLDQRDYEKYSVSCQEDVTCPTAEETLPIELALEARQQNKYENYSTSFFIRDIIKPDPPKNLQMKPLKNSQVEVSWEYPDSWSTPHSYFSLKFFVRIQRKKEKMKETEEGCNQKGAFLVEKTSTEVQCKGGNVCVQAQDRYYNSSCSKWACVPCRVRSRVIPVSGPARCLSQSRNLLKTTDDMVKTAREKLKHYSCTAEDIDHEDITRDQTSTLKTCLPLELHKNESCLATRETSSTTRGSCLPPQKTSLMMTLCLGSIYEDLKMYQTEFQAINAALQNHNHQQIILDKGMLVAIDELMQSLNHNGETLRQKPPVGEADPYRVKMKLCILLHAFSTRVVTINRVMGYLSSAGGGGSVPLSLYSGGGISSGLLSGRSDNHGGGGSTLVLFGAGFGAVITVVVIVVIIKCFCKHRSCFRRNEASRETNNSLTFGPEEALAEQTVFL

activated murine MMP2 (matrix metalloprotease 2)
release of cleaved (therefore soluble) IL-12p70 into the supernatant, ELISA (IL-12p70-L5-TM): a time-dependent release of IL-12p70 was observed | release of cleaved (therefore soluble) IL-12p70 into the supernatant, ELISA (IL-12p70-L2-TM): a time-dependent release of IL-12p70 was observed | release of cleaved (therefore soluble) IL-12p70 into the supernatant, ELISA (IL-12p70-L4s-TM): a time-dependent release of IL-12p70 was observed | release of cleaved (therefore soluble) IL-12p70 into the supernatant, ELISA (IL-12p70-L3-TM): a time-dependent release of IL-12p70 was observed | release of cleaved (therefore soluble) IL-12p70 into the supernatant, ELISA (IL-12p70-L4-TM): a time-dependent release of IL-12p70 was observed
